In publication PMC2536506:

Target: GST-TDRD3-Tdr E691K (human)
Assay: pull-down

percent reduction of binding against wild-type GST-TDRD3-Tdr [%] | Substance
50 | DEAD/H box-3 (from UniProt O00571-1 1-662) (natural protein)
90 | Eukaryotic translation elongation factor 1 alpha 1 (from UniProt P68104 1-462) (natural protein)
